The values that follow are results of earlier work, collected in publication PMC4365979.

Broadly, the Kd is the concentration at which binding is half-saturated.

The target in the data set is Rab11 (Homo sapiens) (UniProt P62491).
Chain of UniProt P62491 (P62491 2-213): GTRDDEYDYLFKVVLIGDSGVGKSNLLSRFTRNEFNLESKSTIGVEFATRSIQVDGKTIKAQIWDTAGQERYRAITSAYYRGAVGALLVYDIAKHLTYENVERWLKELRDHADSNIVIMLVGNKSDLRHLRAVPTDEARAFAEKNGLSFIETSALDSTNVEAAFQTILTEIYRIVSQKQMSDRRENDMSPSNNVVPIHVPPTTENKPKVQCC

Take Rab11-FIP1/RCP (from UniProt Q6WKZ4): the Kd is 50 nM.
